Results on one substance are retold here after article PMC4422724.

Test [1] has as its target G146V mutant Dictyostelium actin (Dictyostelium). The experiment in a line: pyrene fluorescence depolymerization assay; 2 μM Mg-actin (20% pyrene-labeled) polymerized overnight at 22°C with 100 mM KCl, 2 mM MgCl2, 0.5 mM ATP; depolymerization induced with 30 μM latrunculin A; double-exponential fit; filament to monomers.
Test [2] has the same target. The experiment in a line: pyrene fluorescence depolymerization assay; 2 μM Mg-actin (20% pyrene-labeled) polymerized for 12 min at 22°C with 100 mM KCl, 2 mM MgCl2, 0.5 mM ATP; depolymerization induced with 30 μM latrunculin A; double-exponential fit; filament to monomers.
For test [3] the target is unchanged. The experiment in a line: co-sedimentation; critical concentration by pelleting assay: 0.5-3.0 μM actin polymerized in F-buffer (10 mM HEPES pH 7.4, 2 mM MgCl2, 100 mM KCl, 0.5 mM ATP, 0.5 mM DTT) for 3 hr at 21°C, ultracentrifuged, protein in pellets determined; monomer to filament.

On to “G146V mutant Dictyostelium actin (natural protein)”, for which, in test [1], the τf (depolymerization, fast-depolymerization population) amounted to 27.4 min and the τs (depolymerization, slow-depolymerization population) came to 98 min. In test [2], the τf (depolymerization, fast-depolymerization population) was found to be 20.1 min and the τs (depolymerization, slow-depolymerization population) was 169 min. Moreover, the critical concentration in test [3] was found to be 0.51 µM.
